Source: the supplement of paper PMC9170038

System: MS2 coat protein
Test: apparent KD of MS2 coat protein; designed switch direction (-1 OFF switch, 1 ON switch): -1; higher = weaker reporter binding
Summary of the method: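 Designed RNA switches with common flanks were transcribed on Illumina chips by stalled E. coli RNA polymerase and titrated with SNAP-549-labelled MS2 coat protein, from 0.7 or 1.5 nM doubling to 3 µM, in Tris-HCl pH 7.5 buffer with KCl, MgCl2, BSA, DTT, tRNA and Tween-20. Steps lasted 0.8–1.5 h (lowest) to 10–20 min (highest). Titrations ran without input, with 200 uM small-molecule ligand, or with an oligonucleotide input. Normalised cluster fluorescence was curve-fitted, and apparent KD is the per-design median over clusters.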

[1] = Eterna round: R95, input ligand: FMN 200 uM
[2] = Eterna round: R95, input ligand: microRNA oligo, concentration not stated
[3] = Eterna round: R95, input ligand: none
[4] = input ligand: microRNA oligo, concentration not stated

## AAAAGAAGUGUUAGGAUAUGUGUAAGUAGAAAGACACAGAAGGAACAUGAGGAUCACCCAUGUGGCCAAAGAAC [Vesotila] (puzzle: Brourd's mod of Exclusion 4)
[1]
  apparent KD of MS2 coat protein: 38.7 nM
[2]
  apparent KD of MS2 coat protein: 14.1 nM
[3]
  apparent KD of MS2 coat protein: 13.6 nM

## AAGAAACAUGAGGAUCACCCAUGUCAGGAUAUCUCGAAAAGCAUAGAAAUAUGCGAAGAGAGAAGGGACUAUCC [ChP Ext 10-04-2015 #3] (puzzle: Exclusion 1)
[1]
  apparent KD of MS2 coat protein: 22.7 nM
[2]
  apparent KD of MS2 coat protein: 23.7 nM
[3]
  apparent KD of MS2 coat protein: 31.6 nM

## AUGGAGGCAGGAUAUGAGCGUACGAACAUGAGGAUCACCCAUGUGAGAUCUCCUGGUAGCUCAGAAGGGCUAUCUC [Eternabot (Original) Solution 5] (Eterna round: R97, puzzle: Exclusion 5)
Input ligand: FMN 200 uM
  apparent KD of MS2 coat protein: 253 nM
Input ligand: none
  apparent KD of MS2 coat protein: 67.4 nM

## AAGAUGCGGAUAGGAUAUGGAAAUUAAUAAAGACCAGAAGGAUUGGUCACACAACAUGAGGAUCACCCAUGUGUGUGUUGUGAA [AK ExNG1-5] (Eterna round: R96, puzzle: Exclusion NG 1)
[4]
  apparent KD of MS2 coat protein: 10.6 nM

## AAUCCACAUGAGGAUCACCCAUGUCAGGAUAUCGUGUCGCGGGUUUCGGUCCGUGAUGCGAGAAGGGACGGCUG (puzzle: Exclusion 1)
[2]
  apparent KD of MS2 coat protein: 27.4 nM

## CGGCAAUCCUAGGAUAUGCUAGACGAGAGUCUAGCAGAAGGAGGAACAUGAGGAUCACCCAUGUGUCCUAGCCG [Mat - Exclusion 6 - Eli Mod - D15] (Eterna round: R97, puzzle: Exclusion 6)
Input ligand: FMN 200 uM
  apparent KD of MS2 coat protein: 22.1 nM
Input ligand: none
  apparent KD of MS2 coat protein: 15.6 nM

## ACAAGCUCUGUGGGUGGUGACAUGAGGAUCACCCAUGUUUUGCUCGUCUUGUGGGCCCGGGCCCGCGGCCCGGGCCC [-41.4, -70.3, A 12%] (Eterna round: R97, puzzle: Sensor, turn-off variant 1)
Input ligand: FMN 200 uM
  apparent KD of MS2 coat protein: 516 nM
Input ligand: none
  apparent KD of MS2 coat protein: 978 nM

## UAUUAGUGAGGAUAUGGUAUAGAUAAGAUGAUGAAAGAACUCCAGAAGGCACAUGAGGAUCACCCAUGUAGUAG [JL-ex4-2.08 Jieux mod] (puzzle: Exclusion 4)
[1]
  apparent KD of MS2 coat protein: 20.4 nM
[2]
  apparent KD of MS2 coat protein: 23.7 nM
[3]
  apparent KD of MS2 coat protein: 20.9 nM

## GGAAAGGUAGGAUAUACGAAGAAAAAGGGUAGAAUAAUAACACAUGAGGAUCACCCAUGUAGAAGGACCAAAGG [Mat - Exclusion 2 - Mod of my Tesla design - D6] (puzzle: Exclusion 2)
[1]
  apparent KD of MS2 coat protein: 40.5 nM
[2]
  apparent KD of MS2 coat protein: 23.1 nM
[3]
  apparent KD of MS2 coat protein: 19.3 nM

## CCUCAGAUGUAGGAUAUCGCCCAGACAUUGCGGCGAGAAGGACAAACAUGAGGAUCACCCAUGUUAGUUUAGCA [Eternabot (L2) Solution 92] (Eterna round: R97, puzzle: Exclusion 6)
Input ligand: FMN 200 uM
  apparent KD of MS2 coat protein: 257 nM
Input ligand: none
  apparent KD of MS2 coat protein: 32.3 nM

## UAUUUACAUGAGGAUCACCCAUGUCAGGAUAUGCUCGAUAUAUGGAAACAUAUAUCGAGCAGAAGGGACUAGCG [Jieuxxlusion 7 - Jieux - Exclusion 1] (Eterna round: R97, puzzle: Exclusion 1)
Input ligand: FMN 200 uM
  apparent KD of MS2 coat protein: 152 nM
Input ligand: none
  apparent KD of MS2 coat protein: 72.7 nM

## GUAAAAUAAGCUUAUUUACACAUGAGGAUCACCCAUGUAUUGGACGGACUCCUGACCUCAAUUAUAUGCUCGUAUCG [Eternabot (L1) Solution 41] (Eterna round: R97, puzzle: Sensor, turn-off variant 1)
Input ligand: FMN 200 uM
  apparent KD of MS2 coat protein: 77.6 nM
Input ligand: none
  apparent KD of MS2 coat protein: 79.5 nM

## UUCGUGCAGCAAAGCUGUACGCGUACAUGAGGAUCACCCAUGUAGGAUAUGGUAGGCAAAGCUUACUAGAAGGAUAUGGUGAGC [Mat - Exclusion NG 3 - Mod of JL - D80] (Eterna round: R96, puzzle: Exclusion NG 3)
Input ligand: FMN 200 uM
  apparent KD of MS2 coat protein: 51.9 nM
[4]
  apparent KD of MS2 coat protein: 36.8 nM
Input ligand: none
  apparent KD of MS2 coat protein: 35.2 nM

## CUAGAUCUUCGGAUCUAGUACAUGAGGAUCACCCAUGUGACGAGUAGAUCCUCAAACAAGCUUUUUGCUCGUCUUAU [Sensor v3 - Turn-off variant 1 - 20] (Eterna round: R96, puzzle: Sensor v3, turn-off variant 1)
Input ligand: FMN 200 uM
  apparent KD of MS2 coat protein: 132 nM
[4]
  apparent KD of MS2 coat protein: 16.4 nM
Input ligand: none
  apparent KD of MS2 coat protein: 194 nM

## GUAGAGACAGGAUAUACAUGAGGAUCACCCAUGUGAGGAGGAAAAGAGAGGAGAAAGAGUAGAAGGGUCGAAAG [JR_Exclu3_Sub030] (puzzle: Exclusion 3)
[1]
  apparent KD of MS2 coat protein: 41.4 nM
[2]
  apparent KD of MS2 coat protein: 35.7 nM
[3]
  apparent KD of MS2 coat protein: 43 nM

## UUAAAUCAUGUAGGAUAUGCGUGGCGAAGCUAUGCAGAAGGACAUGAGGAUCACCCAUGUGCUUGCGUCUGCGUACAGAUGCUA [JL ENG1 1.12] (Eterna round: R96, puzzle: Exclusion NG 1)
Input ligand: FMN 200 uM
  apparent KD of MS2 coat protein: 112 nM
[4]
  apparent KD of MS2 coat protein: 52.8 nM
Input ligand: none
  apparent KD of MS2 coat protein: 63.7 nM

## AUAAGUAUAUAGGAUAUCUAGCUGGUAACAGCUAGAGAAGGAUGUACAUGAGGAUCACCCAUGUAAAUCGAUCA [Ex6/10-A2] (Eterna round: R97, puzzle: Exclusion 6)
Input ligand: FMN 200 uM
  apparent KD of MS2 coat protein: 18.5 nM
Input ligand: none
  apparent KD of MS2 coat protein: 18.1 nM

## AGUUGGCGAGGAUAUACAUGAGGAUCACCCAUGUGAGAGAUACGAGUGAGGUCGAUUAGUAGAAGGCGCUGACA [Mat X3R4 m14] (Eterna round: R97, puzzle: Exclusion 3)
Input ligand: FMN 200 uM
  apparent KD of MS2 coat protein: 984 nM
Input ligand: none
  apparent KD of MS2 coat protein: 161 nM

## UUGUACCGGUGAGGAUAUCGUUGAUAGAACUUUAUGAUAUACAUGAGGAUCACCCAUGUUACUUUCGAGAAGGCAUCGGAUUAU [ExNG2 6th] (Eterna round: R96, puzzle: Exclusion NG 2)
Input ligand: FMN 200 uM
  apparent KD of MS2 coat protein: 12.3 nM
[4]
  apparent KD of MS2 coat protein: 10.3 nM
Input ligand: none
  apparent KD of MS2 coat protein: 21.8 nM

## GGUCGGCGAGGAUAUACAUGAGGAUCACCCAUGUGAUAGAGUGCACGCGUACGUGUAUGUAGAAGGCGCUGACG [JL-ex3-3.29 salish99 mod] (puzzle: Exclusion 3)
[1]
  apparent KD of MS2 coat protein: 160 nM
[2]
  apparent KD of MS2 coat protein: 34.2 nM
[3]
  apparent KD of MS2 coat protein: 66 nM

## GUGUGACAUGAGGAUCACCCAUGUGAGGAUAUCAUGCUUCGUAGUAAACUACGAAGUGUGAGAAGGCACAUAAC [Omei Ex1 E8] (Eterna round: R97, puzzle: Exclusion 1)
Input ligand: FMN 200 uM
  apparent KD of MS2 coat protein: 678 nM
Input ligand: none
  apparent KD of MS2 coat protein: 122 nM

## AGCGUGGAGACAGGAUAUGAGAAUAGAUAGAACUCAGAAGGGUCACAUGAGGAUCACCCAUGUAAAGUCUUGAGGAUGAGUGAU [Prohibition 4 - Jieux - Exclusion NG 1] (Eterna round: R96, puzzle: Exclusion NG 1)
Input ligand: FMN 200 uM
  apparent KD of MS2 coat protein: 192 nM
[4]
  apparent KD of MS2 coat protein: 57.7 nM
Input ligand: none
  apparent KD of MS2 coat protein: 73.5 nM
